Measurements as given in patent publication EP1262190A1, “RFRP-CONTAINING PROLACTIN SECRETION REGULATORY AGENT” (Takeda Chemical Industries, Ltd., priority 2000, dated 2001).

Molecular target: human 0T7T022 receptor (human)
Assay: cell-based or functional assay

ED50, inhibition of the cAMP level increased by forskolin | Substance
21 nM | hRFRP-1-37 (peptide having the 56 (Ser) to 92 (Phe) amino acid sequence in SEQ ID NO:1)
30 nM | rRFRP-1-37 (peptide having the 58 (Ser) to 94 (Phe) amino acid sequence in SEQ ID NO:50)
